Reference: publication PMC8142254, “The mycobacterial proteasomal ATPase Mpa forms a gapped ring to engage the 20S proteasome” (The Journal of Biological Chemistry, 2021)

Experiments:
[1] = target: Mycobacterium tuberculosis open-gate 20S proteasome core particle (20SOG CP) (Mycobacterium tuberculosis) (UniProt P9WHU1); test: negative-stain EM; 2 M equivalents of Mpa hexamer, 3 M equivalents of Pup and 1 M equivalent of 20SOG CP with 3 mM ADP on ice for 40 min; 2D class averages of side views, capped versus uncapped CPs counted
[2] = target: Mycobacterium tuberculosis open-gate 20S proteasome core particle (20SOG CP) (Mycobacterium tuberculosis) (UniProt P9WHU1); test: negative-stain EM; 2 M equivalents of Mpa hexamer, 3 M equivalents of Pup and 1 M equivalent of 20SOG CP with 3 mM ATP on ice for 40 min; 2D class averages of side views, capped versus uncapped CPs counted

Sequence of Mycobacterium tuberculosis open-gate 20S proteasome core particle (20SOG CP) (Mycobacterium tuberculosis) (P9WHU1 whole entry, chain 1 of 2): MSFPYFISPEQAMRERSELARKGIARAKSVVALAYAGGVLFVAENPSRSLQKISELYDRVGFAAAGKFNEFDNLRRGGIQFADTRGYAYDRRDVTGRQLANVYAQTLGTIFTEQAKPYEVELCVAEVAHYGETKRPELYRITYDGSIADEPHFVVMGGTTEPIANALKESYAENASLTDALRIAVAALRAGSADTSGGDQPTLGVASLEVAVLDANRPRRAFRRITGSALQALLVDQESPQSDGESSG
Sequence of Mycobacterium tuberculosis open-gate 20S proteasome core particle (20SOG CP) (Mycobacterium tuberculosis) (P9WHT9 58-291, chain 2 of 2, further chain): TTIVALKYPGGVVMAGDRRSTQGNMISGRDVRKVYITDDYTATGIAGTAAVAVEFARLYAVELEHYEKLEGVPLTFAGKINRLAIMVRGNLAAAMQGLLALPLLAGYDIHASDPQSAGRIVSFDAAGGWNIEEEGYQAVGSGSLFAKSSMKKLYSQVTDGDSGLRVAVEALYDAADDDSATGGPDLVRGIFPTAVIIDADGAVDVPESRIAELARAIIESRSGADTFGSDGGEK

B1: Mycobacterium tuberculosis proteasomal ATPase Mpa, full-length (1–609) (enzyme)
chain: MGESERSEAFGIPRDSPLSSGDAAELEQLRREAAVLREQLENAVGSHAPTRSARDIHQLEARIDSLAARNSKLMETLKEARQQLLALREEVDRLGQPPSGYGVLLATHDDDTVDVFTSGRKMRLTCSPNIDAASLKKGQTVRLNEALTVVEAGTFEAVGEISTLREILADGHRALVVGHADEERVVWLADPLIAEDLPDGLPEALNDDTRPRKLRPGDSLLVDTKAGYAFERIPKAEVEDLVLEEVPDVSYADIGGLSRQIEQIRDAVELPFLHKELYREYSLRPPKGVLLYGPPGCGKTLIAKAVANSLAKKMAEVRGDDAHEAKSYFLNIKGPELLNKFVGETERHIRLIFQRAREKASEGTPVIVFFDEMDSIFRTRGTGVSSDVETTVVPQLLSEIDGVEGLENVIVIGASNREDMIDPAILRPGRLDVKIKIERPDAEAAQDIYSKYLTEFLPVHADDLAEFDGDRSACIKAMIEKVVDRMYAEIDDNRFLEVTYANGDKEVMYFKDFNSGAMIQNVVDRAKKNAIKSVLETGQPGLRIQHLLDSIVDEFAENEDLPNTTNPDDWARISGKKGERIVYIRTLVTGKSSSASRAIDTESNLGQYL
notes: Mpa (mycobacterial proteasome ATPase), Mycobacterium tuberculosis, full-length, residues 1-609; Homohexamer; In the cryo-EM model the coiled-coil domains and two of the six AAA domains are not resolved; also called mycobacterial proteasome ATPase; WT Mpa
In the case of B1, the percent of 20SOG CPs bound to Mpa hexamer [1] is reported as 8% and the percent of 20SOG CPs bound to Mpa hexamer [2] is reported as 37%.
